Reference: patent US20220017615A1 (SHANGHAI PHARMAEXPLORER, published 2022)

Assays:
[1] = target: T1, His-tagged CD47 recombinant protein, CD47-His (human, UniProt Q08722 19-141, limits assumed); experiment: BLI (Octet Red 96), antibody on AHC sensor, CD47-His 100 nM
T1 construct: it is not restated for CD47-His; also called human CD47-His protein; antigen CD47-His; not shown: His tag

[2] = target: T2, biotin-labeled CD47 extracellular domain protein (CD47-ECD) (UniProt Q08722 19-139, limits assumed, biotin-labeled (sites not given)); experiment: blocking ELISA: SIRPα-hFc coated, biotin-labeled CD47-ECD added with the antibody, OD450; blocked ligand SIRPα-hFc
T2 construct: extracellular domain; also called CD47 protein

B1: c95E2D10 (antibody, V domains shown)
VH: QIQLQQSGPELVKPGASMKISCKASGYPFTDYYIHWVKQKPGQGLEWIGWIYPGSGNNKYNEKFKGKATLTVDTSPSTVYMQLSSLTSEDTAVYFCARRAGNYFDYWGQGTTLTVSS
VL: NIVMTQSPKSMSRSVGERVTLSCRASENVRTYVFWYQQKPGLSPKLLIYGASNRYIGVPDRFTGSGSATDFTLTISSVQAEDLADYHCGQSYSYPLTFGAGTKLELK
- Kd [1]: 10.2 nM
- koff [1]: 0.00358 s⁻¹
- kon [1]: 350000 M⁻¹ s⁻¹
- IC50 (read off the curve) [2]: ~1 nM
